# Reference: patent US20140242093A1, “METHODS AND COMPOSITIONS FOR MODULATING THE INNATE IMMUNE RESPONSE AND/OR MYOGENESIS IN A MAMMALIAN SUBJECT” (FRED HUTCHINSON CANCER RESEARCH CENTER, priority 2011, published 2014)
# B1: DUX4-s: short splice form of DUX4 (SEQ ID NO:112), keeps the double-homeobox domains, lacks the C-terminal activation domain (protein, listed as Homo sapiens)
# chain: MALPTPSDSTLPAEARGRGRRRRLVWTPSQSEALRACFERNPYPGIATRERLAQAIGIPEPRVQIWFQNERSRQLRQHRRESRPWPGRRGPPEGRRKRTAVTGSQTALLLRAFEKDRFPGIAAREELARETGLPESRIQIWFQNRRARHPGQGGRAPAQV
# Experiments:
# Human myoblasts = test: Expression array of the innate immune response to lentiviral infection versus uninfected cells; type: cell-based
# Protocol: RNA was harvested from the lenti-viral infected cells and uninfected control cells at 24 hours after infection.
# [1] = test system: Cultured control human myoblasts; test: Beta-defensin 3 and innate immune response, real-time qPCR of IFIH1, ISG20, DEFB103; type: cell-based; details: RT-qPCR, similar titers, FIG. 7A
# Protocol: Cultured control human myoblasts were grown to 80% confluence and infected with equivalent titers of lenti-GFP, lenti-DUX4-s and lenti-DUX4-fl in growth media supplemented with 8 μg/mL polybrene. Expression of innate immune responsive genes including IFIH1 (MDA5), ISG20 and DEFB103 were assessed by real-time qPCR as previously described at 24 hours (primer sequences below). For conditioned media, cells were infected with lenti-DUX4-fl for 12 hours, thoroughly washed 3 times with PBS and switched to fresh growth media to condition for 12 hours. Control conditioned media was produced from cells not infected with any lentivirus. Myoblasts were infected with lenti-GFP in either control conditioned media, lenti-DUX4-fl conditioned media or regular growth media supplemented with 1 μM human β-defensin 3 (Peptides International, Louisville, Ky.). Expression of innate immune responsive genes were examined after 24 hours.
molecule,measurement,setting,value
B1,IFITM3 expression ratio vs GFP (.fc),"Human myoblasts; gene IFITM3 NM_021034.2, vs lenti-GFP, 24 hours after infection",−0.13 log2 fold change
same,IFITM3 expression ratio vs NoLenti (.fc),"Human myoblasts; gene IFITM3 NM_021034.2, vs uninfected, 24 hours after infection",1.84 log2 fold change
same,IL1R1 expression ratio vs GFP (.fc),"Human myoblasts; gene IL1R1 NM_000877.2, vs lenti-GFP, 24 hours after infection",0.30 log2 fold change
same,IL1R1 expression ratio vs NoLenti (.fc),"Human myoblasts; gene IL1R1 NM_000877.2, vs uninfected, 24 hours after infection",1.61 log2 fold change
same,IL7R expression ratio vs GFP (.fc),"Human myoblasts; gene IL7R NM_002185.2, vs lenti-GFP, 24 hours after infection",0.57 log2 fold change
same,IL7R expression ratio vs NoLenti (.fc),"Human myoblasts; gene IL7R NM_002185.2, vs uninfected, 24 hours after infection",2.05 log2 fold change
same,IL8 expression ratio vs GFP (.fc),"Human myoblasts; gene IL8 NM_000584.2, vs lenti-GFP, 24 hours after infection",1.19 log2 fold change
same,IL8 expression ratio vs NoLenti (.fc),"Human myoblasts; gene IL8 NM_000584.2, vs uninfected, 24 hours after infection",4.69 log2 fold change
same,IL18BP expression ratio vs GFP (.fc),"Human myoblasts; gene IL18BP NM_173042.2, vs lenti-GFP, 24 hours after infection",1.40 log2 fold change
same,IL18BP expression ratio vs NoLenti (.fc),"Human myoblasts; gene IL18BP NM_173042.2, vs uninfected, 24 hours after infection",3.37 log2 fold change
same,IRF7 expression ratio vs GFP (.fc),"Human myoblasts; gene IRF7 NM_004029.2, vs lenti-GFP, 24 hours after infection",1.14 log2 fold change
same,IRF7 expression ratio vs NoLenti (.fc),"Human myoblasts; gene IRF7 NM_004029.2, vs uninfected, 24 hours after infection",3.99 log2 fold change
same,IRF9 expression ratio vs GFP (.fc),"Human myoblasts; gene IRF9 NM_006084.4, vs lenti-GFP, 24 hours after infection",0.29 log2 fold change
same,IRF9 expression ratio vs NoLenti (.fc),"Human myoblasts; gene IRF9 NM_006084.4, vs uninfected, 24 hours after infection",2.72 log2 fold change
same,MX1 expression ratio vs GFP (.fc),"Human myoblasts; gene MX1 NM_002462.2, vs lenti-GFP, 24 hours after infection",0.26 log2 fold change
same,MX1 expression ratio vs NoLenti (.fc),"Human myoblasts; gene MX1 NM_002462.2, vs uninfected, 24 hours after infection",7.49 log2 fold change
same,NFIL3 expression ratio vs GFP (.fc),"Human myoblasts; gene NFIL3 NM_005384.2, vs lenti-GFP, 24 hours after infection",0.32 log2 fold change
same,NFIL3 expression ratio vs NoLenti (.fc),"Human myoblasts; gene NFIL3 NM_005384.2, vs uninfected, 24 hours after infection",2.16 log2 fold change
same,NFKBIA expression ratio vs GFP (.fc),"Human myoblasts; gene NFKBIA NM_020529.1, vs lenti-GFP, 24 hours after infection",0.28 log2 fold change
same,NFKBIA expression ratio vs NoLenti (.fc),"Human myoblasts; gene NFKBIA NM_020529.1, vs uninfected, 24 hours after infection",2.46 log2 fold change
same,NFKBIZ expression ratio vs GFP (.fc),"Human myoblasts; gene NFKBIZ NM_001005474.1, vs lenti-GFP, 24 hours after infection",−0.26 log2 fold change
same,NFKBIZ expression ratio vs NoLenti (.fc),"Human myoblasts; gene NFKBIZ NM_001005474.1, vs uninfected, 24 hours after infection",1.58 log2 fold change
same,STAT1 expression ratio vs GFP (.fc),"Human myoblasts; gene STAT1 NM_007315.2, vs lenti-GFP, 24 hours after infection",0.82 log2 fold change
same,STAT1 expression ratio vs NoLenti (.fc),"Human myoblasts; gene STAT1 NM_007315.2, vs uninfected, 24 hours after infection",4.79 log2 fold change
same,STAT2 expression ratio vs GFP (.fc),"Human myoblasts; gene STAT2 NM_005419.2, vs lenti-GFP, 24 hours after infection",0.19 log2 fold change
same,STAT2 expression ratio vs NoLenti (.fc),"Human myoblasts; gene STAT2 NM_005419.2, vs uninfected, 24 hours after infection",2.11 log2 fold change
same,TLR3 expression ratio vs GFP (.fc),"Human myoblasts; gene TLR3 NM_003265.2, vs lenti-GFP, 24 hours after infection",1.67 log2 fold change
same,TLR3 expression ratio vs NoLenti (.fc),"Human myoblasts; gene TLR3 NM_003265.2, vs uninfected, 24 hours after infection",2.56 log2 fold change
same,TNFAIP2 expression ratio vs GFP (.fc),"Human myoblasts; gene TNFAIP2 NM_006291.2, vs lenti-GFP, 24 hours after infection",0.06 log2 fold change
same,TNFAIP2 expression ratio vs NoLenti (.fc),"Human myoblasts; gene TNFAIP2 NM_006291.2, vs uninfected, 24 hours after infection",1.06 log2 fold change
same,TNFAIP3 expression ratio vs GFP (.fc),"Human myoblasts; gene TNFAIP3 NM_006290.2, vs lenti-GFP, 24 hours after infection",0.28 log2 fold change
same,TNFAIP3 expression ratio vs NoLenti (.fc),"Human myoblasts; gene TNFAIP3 NM_006290.2, vs uninfected, 24 hours after infection",2.50 log2 fold change
same,TNFAIP6 expression ratio vs GFP (.fc),"Human myoblasts; gene TNFAIP6 NM_007115.2, vs lenti-GFP, 24 hours after infection",1.31 log2 fold change
same,TNFAIP6 expression ratio vs NoLenti (.fc),"Human myoblasts; gene TNFAIP6 NM_007115.2, vs uninfected, 24 hours after infection",5.10 log2 fold change
same,TNFRSF6B expression ratio vs GFP (.fc),"Human myoblasts; gene TNFRSF6B NM_032945.2, vs lenti-GFP, 24 hours after infection",0.01 log2 fold change
same,TNFRSF6B expression ratio vs NoLenti (.fc),"Human myoblasts; gene TNFRSF6B NM_032945.2, vs uninfected, 24 hours after infection",1.32 log2 fold change
same,TNFRSF10A expression ratio vs GFP (.fc),"Human myoblasts; gene TNFRSF10A NM_003844.2, vs lenti-GFP, 24 hours after infection",0.84 log2 fold change
same,TNFRSF10A expression ratio vs NoLenti (.fc),"Human myoblasts; gene TNFRSF10A NM_003844.2, vs uninfected, 24 hours after infection",1.81 log2 fold change
same,TNFRSF14 expression ratio vs GFP (.fc),"Human myoblasts; gene TNFRSF14 NM_003820.2, vs lenti-GFP, 24 hours after infection",0.57 log2 fold change
same,TNFRSF14 expression ratio vs NoLenti (.fc),"Human myoblasts; gene TNFRSF14 NM_003820.2, vs uninfected, 24 hours after infection",1.78 log2 fold change
same,TNFSF10 expression ratio vs GFP (.fc),"Human myoblasts; gene TNFSF10 NM_003810.2, vs lenti-GFP, 24 hours after infection",2.97 log2 fold change
same,TNFSF10 expression ratio vs NoLenti (.fc),"Human myoblasts; gene TNFSF10 NM_003810.2, vs uninfected, 24 hours after infection",3.88 log2 fold change
same,TNFSF13B expression ratio vs GFP (.fc),"Human myoblasts; gene TNFSF13B NM_006573.3, vs lenti-GFP, 24 hours after infection",2.19 log2 fold change
same,TNFSF13B expression ratio vs NoLenti (.fc),"Human myoblasts; gene TNFSF13B NM_006573.3, vs uninfected, 24 hours after infection",3.78 log2 fold change
same,number of the 341 lenti-GFP induced genes induced 2-fold or more,"Human myoblasts; vs uninfected cells, 24 hours",315 genes
same,induction of the innate immune response in myoblasts,[1],induced the innate immune response
